The results in this text go back to US20190010233A1 (JIANGSU HYAMAB PHARMACEUTICAL, published 2019).

Usually Kd stands for the concentration at which binding is half-saturated. Read a high Kd as lower affinity. Usually koff stands for the rate constant with which the complex falls apart. Lower therefore signals a long-lived complex. The kon is a measure of how fast the partners come together. High values mean fast association, low ones slow association.

Sequences and labels used below:
B1: chimeric anti-PD-L1 antibody 78A11F6 (antibody, V domains shown)
VH: EVQLVESGGGLVQPGGSLRLSCAASGITFSSYWMSWVRQTPGKGLEWVANIKQDGSEKYYVKSVKGRFTISRDNAKNSLYLQMNSLRAEDTAVYYCVRDRAVPGTGAFDIWGQGTMVIVSS
VL: DIQMTQSPSTLSASVGDRVTITCRASQSISNWLAWYQQKPGKAPKLLIYKASSLESGVPSRFSGSGSGTEFTLTISSLQPDDFATYYCQQYDSSLFTFGQGTKLEIK
notes: Purified from hybridoma of Harbour H2L2 mice: human variable regions, rat constant regions
B2: chimeric anti-PD-L1 antibody 73G11B3 (antibody, V domains shown)
VH: B1 VH with A23V, A24V, I27F, K62D, F68L, F108L, I118T
VL: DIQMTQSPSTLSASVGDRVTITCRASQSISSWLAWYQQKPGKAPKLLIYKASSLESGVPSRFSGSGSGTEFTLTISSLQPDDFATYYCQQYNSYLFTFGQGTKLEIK
notes: as for B1
B3: chimeric anti-PD-L1 antibody 73D3G2 (antibody, V domains shown)
VH: EVQLVESGGGLVQPGGSLRLSCAASGFTFNTYWMNWVRQAPGRGLEWVANIKQDGGEKYYVDSVKGRFTISRDNAKNSLYLQMNSLRAEDTAMYYCARDGRSWYPDAFDIWGQGTVVTVSS
VL: DIQMTQSPSTLSASVGDRVTITCRASQSISTWLAWYQQKLGKAPKLLIYEVSILESGVPSRFSGSGSGTEFTLTISSLQPDDFATYYCQQYHSFSSFGGGTRVEIK
notes: as for B1
B4: chimeric anti-PD-L1 antibody 105C5D7 (antibody, V domains shown)
VH: EVQLVESGGGLVQPGGSLRLSCAASGFTFSSYWMSWVRQAPGKGLEWVANIKQDGNEKYYVDSVKGRFTISRDNAKNSLYLQMNSLRAEDTAVYYCARNIKWGDAFDIWGQGTMVTVSS
VL: DIQMTQSPSSLSASVGDRVTITCRASQSISSYLNWYQQKPGKAPKLLIYAASSLQSGVPSRFSGSGSGTDFTLTISSLQPEDFAIYSCQQSYSIPLTFGGGTKVEIK
notes: as for B1
B5: chimeric anti-PD-L1 antibody 127D2F3 (antibody, V domains shown)
VH: EVQLVESGGGLVQPGGSLRLSCVASGFTFSSYWMSWVRQAPGKGLEWVANIKQDGSEKYYVDSVKGRLTISRDNAKNSLYLQMKSLRAEDTAVYYCARDPIYSSYFDYWGQGILVTVSS
VL: B4 VL with S31N, I85A, S87Y, S93G, L96F, G100P, E105D
notes: as for B1

Numbering of substitutions follows the chain as printed.

T2 sequence (G7PSE7 entry or part of it limits assumed): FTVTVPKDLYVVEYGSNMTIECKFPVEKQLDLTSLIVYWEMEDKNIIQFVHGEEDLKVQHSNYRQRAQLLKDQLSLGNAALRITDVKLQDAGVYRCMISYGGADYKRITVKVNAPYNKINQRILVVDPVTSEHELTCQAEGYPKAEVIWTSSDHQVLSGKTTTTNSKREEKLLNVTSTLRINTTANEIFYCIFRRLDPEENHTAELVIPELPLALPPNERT

For one experiment, the target named is T1, human PD-L1^ECD-hFc protein (human, UniProt Q9NZQ7 19-239, biotinylated in the PD-1 binding ELISA (Table 3) and in the Octet assay (Table 12)).
T1 construct: The plain and the biotinylated protein are kept as one molecule; also called PD-L1-hFc; Immunogen A; not shown: human IgG Fc fragment (hFc)
T1 sequence (Q9NZQ7 19-239): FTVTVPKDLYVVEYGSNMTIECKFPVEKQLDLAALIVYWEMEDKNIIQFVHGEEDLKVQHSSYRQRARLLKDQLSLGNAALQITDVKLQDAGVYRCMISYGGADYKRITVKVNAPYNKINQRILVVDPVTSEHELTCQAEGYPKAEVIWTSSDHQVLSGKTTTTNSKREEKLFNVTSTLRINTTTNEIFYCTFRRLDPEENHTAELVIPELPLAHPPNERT
Kind of experiment: ELISA, 10 nM mAb. As to the method:
(§1) 100 μL of the diluted recombinant proteins were added to each well of 96-well plate. The plates were sealed with plastic film and incubated at 4° C. overnight. The plates were washed twice with wash buffer (PBS+0.01% (v/v) Tween20), and incubated with blocking buffer (PBS+0.01% (v/v) Tween20+1% (w/w) BSA) at room temperature for 2 hours. The blocking buffer was aspirated away, and 100 μL of purified anti-PD-L1 antibodies were added to each well and incubated for 2 hours at 37° C. The plates were washed three times with wash buffer (PBS+0.01% (v/v) Tween20). HRP-conjugated secondary antibody (Sigma) was added to each well and incubated for 2 hours at 37° C. After the plates were washed three times with wash buffer, 100 μL TMB substrate were added to each well, and the plates were incubated for 30 minutes at room temperature. 100 μL stop solution (0.1N HCl) was added to each well to stop the reaction.
For orientation: ELISA stands for enzyme-linked immunosorbent assay.
For B1, the OD450 nm is 1.72.
Still for that read-out and setting: to B2 belongs 2.73; to B3, 2.09; to B4, 1.56.
Consider B5, for which the OD450 nm came to 2.7.

For a further experiment, the target named is T1, human PD-L1^ECD-hFc protein. In words: ELISA, 30 nM mAb. As to the method: as §1
B1: the OD450 nm turned out to be 1.95.
On to B3, for which the OD450 nm amounted to 1.81.
Turning to B4, the OD450 nm is 1.53.

The next experiment concerns the target T2, cyno PD-L1^ECD-hFc protein (cyno, UniProt G7PSE7 19-239).
T2 construct: also called Cyno Monkey PD-L1^ECD-hFc
In words: ELISA, 30 nM mAb. As to the method: as §1
For the molecule B1, the OD450 nm was 2.06.
B3 registered an OD450 nm of 1.81.
In the case of B4, the OD450 nm turned out to be 1.53.

The next experiment addresses T1, human PD-L1^ECD-hFc protein. In words: ELISA, 0.01 nM mAb. As to the method: as §1
The molecule B2 yielded an OD450 nm of 0.28.
In turn, B5 returned an OD450 nm of 0.38.

A further experiment has the same target. Kind of experiment: ELISA, 1.111 nM mAb. As to the method: as §1
In turn, B1 returned an OD450 nm of 1.86.
B3: the OD450 nm was 1.81.
The molecule B4 showed an OD450 nm of 1.32.

In a further experiment the target is T2, cyno PD-L1^ECD-hFc protein. Kind of experiment: ELISA, 1.111 nM mAb. As to the method:
as §1
B1 displayed an OD450 nm of 1.92.
The same measure, in the same setting: to B3 belongs 1.81.
Regarding B4, the OD450 nm is 1.32.

The next experiment deals with T3, full length human PD-L1 on cells (human, UniProt Q9NZQ7 19-290). In words: cell-based or functional assay.
T3 sequence (Q9NZQ7 19-290 limits assumed): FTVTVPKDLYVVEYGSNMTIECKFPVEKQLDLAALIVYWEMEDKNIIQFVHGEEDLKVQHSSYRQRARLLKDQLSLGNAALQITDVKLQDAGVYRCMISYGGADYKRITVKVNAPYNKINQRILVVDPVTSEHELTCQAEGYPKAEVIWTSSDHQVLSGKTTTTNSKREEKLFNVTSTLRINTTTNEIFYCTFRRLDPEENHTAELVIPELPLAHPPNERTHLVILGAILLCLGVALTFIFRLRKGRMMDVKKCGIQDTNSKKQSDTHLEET
With B1, the “IFN-γ (pg/mL), PBMC stimulation, 0.001 µg/mL mAb” value (“IFN-γ (pg/mL) … 0.001 µg/mL mAb” below) amounted to 3740 pg/mL; the “IFN-γ (pg/mL), PBMC stimulation, 0.01 µg/mL mAb” value (“IFN-γ (pg/mL) … 0.01 µg/mL mAb” for short) stood at 11100 pg/mL; the “IFN-γ (pg/mL), PBMC stimulation, 0.1 µg/mL mAb” value (“IFN-γ (pg/mL) … 0.1 µg/mL mAb” for short) came out at 6100 pg/mL; the “IFN-γ (pg/mL), PBMC stimulation, 1 µg/mL mAb” value was determined as 13000 pg/mL.
Regarding B2, the “IFN-γ (pg/mL) … 0.001 µg/mL mAb” value was found to be 2400 pg/mL; the “IFN-γ (pg/mL) … 0.01 µg/mL mAb” value was 5700 pg/mL; the “IFN-γ (pg/mL) … 0.1 µg/mL mAb” value was determined as 6290 pg/mL; the “IFN-γ (pg/mL), PBMC stimulation, 1 µg/mL mAb” value was found to be 7860 pg/mL. In addition, the “IFN-γ (pg/mL), PBMC stimulation, 10 µg/mL mAb” value came out at 10700 pg/mL.
In the case of B3, the “IFN-γ (pg/mL) … 0.001 µg/mL mAb” value came out at 3830 pg/mL; the “IFN-γ (pg/mL) … 0.01 µg/mL mAb” value was 3280 pg/mL; the “IFN-γ (pg/mL) … 0.1 µg/mL mAb” value was 9560 pg/mL; the “IFN-γ (pg/mL), PBMC stimulation, 1 µg/mL mAb” value stood at 8760 pg/mL.
Take B4: the “IFN-γ (pg/mL) … 0.001 µg/mL mAb” value was 1640 pg/mL; the “IFN-γ (pg/mL) … 0.01 µg/mL mAb” value is 3380 pg/mL; the “IFN-γ (pg/mL) … 0.1 µg/mL mAb” value turned out to be 5850 pg/mL; the “IFN-γ (pg/mL), PBMC stimulation, 1 µg/mL mAb” value came out at 7570 pg/mL.
In the case of B5, the “IFN-γ (pg/mL) … 0.001 µg/mL mAb” value was 3380 pg/mL; the “IFN-γ (pg/mL) … 0.01 µg/mL mAb” value was determined as 7030 pg/mL; the “IFN-γ (pg/mL) … 0.1 µg/mL mAb” value is 7610 pg/mL; the “IFN-γ (pg/mL), PBMC stimulation, 1 µg/mL mAb” value came to 8100 pg/mL. Besides, the “IFN-γ (pg/mL), PBMC stimulation, 10 µg/mL mAb” value worked out at 10100 pg/mL.

A further experiment deals with T4, full length cyno PD-L1 on cells (cyno, UniProt G7PSE7 19-290).
T4 construct: also called CHO-K1-cPD-L1
T4 sequence (G7PSE7 entry or part of it limits assumed): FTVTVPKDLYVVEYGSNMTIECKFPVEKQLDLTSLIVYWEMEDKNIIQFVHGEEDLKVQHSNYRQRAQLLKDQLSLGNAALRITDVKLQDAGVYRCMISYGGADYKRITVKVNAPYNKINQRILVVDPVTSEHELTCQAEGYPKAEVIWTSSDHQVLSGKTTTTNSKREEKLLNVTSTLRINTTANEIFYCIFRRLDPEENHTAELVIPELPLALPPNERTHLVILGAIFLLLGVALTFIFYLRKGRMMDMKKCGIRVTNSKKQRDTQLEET
In words: FACS CHO-K1-cPD-L1, 0.41 nM mAb. As to the method: (§2) Other CHO-K1 were stably transfected with a pIRES plasmid containing the nucleic acid sequence encoding full length cyno PD-L1 to generate CHO-K1 cells stably expressing cyno PD-L1 (herein referred to as CHO-K1-cPD-L1 cells). […] The culture media was aspirated, and the cells were washed twice with HBSS (Hanks Balanced Salt Solution, Invitrogen). The cells were treated with enzyme-free cell dissociation solution (Versene solution, Invitrogen) and collected. The cells were then washed twice with HBSS, cell counts were determined, and cells were resuspended with HBSS at 2×10⁶ cells/mL. Goat serum was added to the cell suspension to a final concentration of 1%, and the cells were blocked for 30 minutes on ice and then washed twice with HBSS. The cells were collected after centrifugation and resuspended in FACS buffer (HBSS+1% BSA, v/v) at 2×10⁶ cells/mL. 100 μL of the cell suspension were then added to each well of 96-well plate. 100 μL of purified anti-PD-L1 antibodies from Example 2 were added to each well of the 96-well plate and incubated for 2 hours on ice. […] The samples were washed three times with FACS buffer, and 100 μL fixation buffer (4% paraformaldehyde v/v) were added to each well and incubated for 10 minutes. The cells were then washed twice with FACS buffer and resuspended in 100 μL FACS buffer. The mean fluorescence intensity (MFI) was determined using FACS Calibur (BD), and the results are shown in FIGS. 7-8 and in Tables 10-11.
For the molecule B1, the Mean fluorescence intensity came out at 74.5.
Turning to B3, the Mean fluorescence intensity was found to be 83.2.
B4: the Mean fluorescence intensity turned out to be 83.8.

Another experiment deals with T4, full length cyno PD-L1 on cells. Kind of experiment: FACS CHO-K1-cPD-L1, 1.23 nM mAb. As to the method: as §2
B1 yielded a Mean fluorescence intensity of 124.
For the molecule B3, the Mean fluorescence intensity turned out to be 116.
Turning to B4, the Mean fluorescence intensity stood at 137.

The next experiment addresses T3, full length human PD-L1 on cells. Kind of experiment: FACS CHO-K1-hPD-L1, 100.00 nM mAb.
With B1, the Mean fluorescence intensity is 232.
Turning to B2, the Mean fluorescence intensity was determined as 215.
Still for that read-out and setting: for B3 the value was 124.
The same measure, in the same setting: for B4 the value was 182; for B5, 234.

The target of a further experiment is T4, full length cyno PD-L1 on cells. Kind of experiment: FACS CHO-K1-cPD-L1, 100.00 nM mAb. As to the method:
as §2
As for B1, the Mean fluorescence intensity amounted to 144.
Same read-out and setting: to B2 belongs 107; to B3, 137.
Take B4: the Mean fluorescence intensity stood at 120.
As to B5, the Mean fluorescence intensity came out at 117.

For another experiment, the target named is T1, human PD-L1^ECD-hFc protein. In words: ELISA, mAb concentration not given. As to the method: as §1
For the molecule B1, the OD450 nm is 2.71.
As to B3, the OD450 nm is 2.75.
On the same count and under the same terms, to B4 belongs 2.64.

Another experiment has as its target T5, hPD-L2 (human, UniProt Q9BQ51 20-219, limits assumed).
T5 construct: Bought protein
T5 sequence (looked up): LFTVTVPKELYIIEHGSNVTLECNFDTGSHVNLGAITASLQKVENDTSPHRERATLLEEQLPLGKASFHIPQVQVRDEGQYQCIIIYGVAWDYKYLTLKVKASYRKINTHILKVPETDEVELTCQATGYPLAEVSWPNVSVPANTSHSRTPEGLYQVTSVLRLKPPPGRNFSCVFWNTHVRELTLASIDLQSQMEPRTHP
In words: ELISA, mAb concentration not given. As to the method: as §1
B1 registered an OD450 nm of 0.205.
As for B3, the OD450 nm worked out at 0.156.
In turn, B4 came in with an OD450 nm of 0.214.

The target in a further experiment is T1, human PD-L1^ECD-hFc protein. In words: BLI Octet Red 96, biotinylated PD-L1-hFc on SA sensor. As to the method: Dissociation constants were determined by Octed red 96 (Fortiebio). The detailed operation and methods were followed according to the specifications of the instrument provided by the manufacturer. Briefly, a streptavidin sensor (SA sensor, Fortiebio) was used for the affinity determination. […] The reaction mixture was further incubated in PBS buffer (pH 7.4) containing 0.1% (v/w) BSA and 0.02% (v/v) Tween20 at 30° C. for 5 minutes.
Consider B1, for which the affinity, expressed as Kd, was 148 pM; the koff came to 3.64e-05 s⁻¹; the kon worked out at 245000 M⁻¹ s⁻¹.
Take B2: the Kd came to 116 pM, the koff came to 3.95e-05 s⁻¹ and the kon amounted to 341000 M⁻¹ s⁻¹.
As for B3, the Kd is less than 1 pM, the koff was less than 1e-07 s⁻¹ and the on-rate (kon) is 398000 M⁻¹ s⁻¹.
As to B4, the Kd came to 245 pM, the koff was determined as 0.000368 s⁻¹ and the kon is 1.5e+06 M⁻¹ s⁻¹.
As for B5, the Kd was less than 1 pM, the off-rate (koff) is less than 1e-07 s⁻¹ and the kon worked out at 368000 M⁻¹ s⁻¹.
